Data from the domain aggregation screens of Martell et al. (2025).

Test: soluble fraction after stress (log2 fold change); higher = more stays soluble; pooled small domains, quantitative proteomics
Settings: stress: 50 degC
Procedure, shortened: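 After stress at 50°C, the amount of each protein still soluble was measured. This was done on pooled custom libraries of small protein domains, using high-throughput quantitative proteomics. The figure given is a base-two log fold change and stands for aggregation propensity, with higher values meaning more protein stays in solution.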

Sequence	soluble fraction (log2)
HMTYSAFITARNKRIAEEYSVLLDSLNISNNVIYRLGSWVVEVNVSDHSRAIDEIYSYERSGRIDKV	-0.498
HMETENLSPREREILEYIVKGYSYKMIAADLNIATETVRSHIKKIYKKLQVNSATEAVYKYSN	-0.322
HMSDKTSLTDDDKALINSMLPDYDKYPSVAKLQAVEIAKSSSKMATLLMLDERYNETVSEALE	0.0209
HMPTYEEAKTYLKAAFEHIVAAGRDVGELVEFAFAKSGDAVAPYLRRFLSDVHEGRITIQGLTESAKLAV	0.206
HMSIASASVKEKIRDIVSSEPPQKPFSDAKIAEILAEDGIAIARRTVAKYREEIGIPTKSLRKR	0.0195
HMSSLQFVTLTLMEGHAWVGREIQELLMPPQMRIALIRRGDSQVIPKGSTILESADELILSAIEYQG	-4.14
HMQITDSGAIETIIDKIIADNPGQVTQYLSGKDKVFGFFVGQTMKASQGKANPAEVNKILQEKLK	0.00553
HMHQKYIITGTRDTYVVSQGETLRTIAEHVYGSRGYARYIIEHNHITHPDDIPVGLTIRLPELELNPDYR	-0.525
HMSVPVNAPMPGTILDIKVKAGAAVKAGDVVMILEAMKMENEISAPQDGTIASIDVRKGDTVNSGDVLYTM	0.0456
HMDDATDVPYQEFRTQVTSGQVEIAQFNNNTGKISFQSTSGEKFETSGPLELSSDDERLFLENIEDFKFFT	-0.0161
HMQETILFGQQKAINNLSSDTGLSENDLDSYLKKRYKKPLYQLTQSEGADIINGFQDGSLSKNSILDYIKP	0.16
HMDRWTPLIVAVLIEGSHRFGELRSAIGGITPKVLTETLRSMERDGLVTRDQVPGVPPRVDYALTPLG	-0.334
HMEKVTAPMPGVINSIVKNVGDTVKRGDVVLILEAMKMENEIVAPKEGKIASINVAKGASVNAGDVLFSI	0.294
HMGTHPGIDSGIISDILALKKELPTRSAAKIITMLTLAGKMEENSIHVKTVNRILYQYGYTRDTLS	-1.88
HMSEITMMQMEIPEGHNWENRLVKDVSMPTGSLAVMIKRHGETLIPGGDTRILAGDTIVLSVPAYESG	-0.0716
HMNHYTEEYILKRMKDFFTTHAYITRRDIESLFGFRRSYATKWLKHFRESGVLKQSGPVNSAVYLL	-2.83
HMGTPEQSAQFEQVLEELKNVPGPVMKAMQRAQDIYGYLPIEIQSRIGQAFGVSLEEVYGIATFYSQFNL	-1.68
HMKVSVDLSMFEDDQTADRNAAVAWVVDELGAGGVDRTILMQLQSTGWSAEQSRAILDLASAGR	-0.208
HMDTINEYERNILSLITSKPGISAVQIAADTDKSIITAKRGIKTLVDGKLIEYRGSKKTGGYFLLTQS	-0.371
HMFMVAGHLSEKNGYFYAVINYNDSLGNRKTKWMSTGLTVKGNKKRAEAILAEKRRTFQPDEPV	-1.69
HMYLNYQTIGKRIRLLRKQQHLTQMTLAEMVDKSPTYISLVENGQKGPSLETLIDVANALKVTMDVLLAEY	-4.39
HMSEKAQSENEDLIKILALLIHAAKIDENYSEKEKKLIISFAEMSSNKKLDREQINSLVDKAEQYEK	-0.17
HMKDHLRFEILSFAGDLRNGVVKTRQEFETIFAFYDKYEEIITALKVHNGYVDSEFDFIKEKFKELKSK	-1.92

Sequence	soluble fraction (log2)
HMTLFDESGYTARELEIIREVANGLSNKEIADKLFLSEGTVKNYITGILAKENLSHRTALAVYYLTGRK	0.0583
HMEPALYRLFMAHPELNASAVARRLGIAQSLLAQYISGSKKPSPERERMILTEIHKIGEELATAS	-0.65
HMAISQYGSQSDEVTKIQTRLKAWGYFDGPVTAYYGSQTTEAVKKFQQKHGLSATGVADAKTLELIGLP	-0.36
HMADNKDMQAAFMEALNGLKEYAKVNGNIVTKEDVNSYFKDMHLDDNKYSMITGYLMANGITIKG	0.23
HMNPGQIIRKLRQDQGMTLAVLAKYANLDPGNLSRIERDDLNISFNLLEKLSLILNVSPIVFFH	-0.154
HMAESLHVTAAALFEGRAMLGIDGSRRLLRVGETSPEGVKLVSATAREAVIEIDGRRQTLAPGRDT	0.0658
HMIENPGQTFERIAGKITRTLRTGPLRIQQLDLLFSESGEQVMDVLRAMAENGEILIKDDTIQWNGHN	-0.0388
HMSGYSTLFTRMSREDAQAVVSLLQDDGIEYRYNDDTGTVQVPSATVDQTRAKLVSAGYPRS	-0.231
HMNKITIDQAKEIALNHAKLTAEQVSFIRTESEFDDGIEKYNIEFYYNNQKYDYDINAVNGQIIQYDLEG	-0.0582
HMVLGDQTFQSASAPKVFFGGDAAYGPKNIITAVAHGHDAAVSIDRFLHGEDVSKRPGPQVNLVS	0.144
HMDPLGGFTKGDVDMDGRVAVNDAVMVLKNAIKLMELDTQQLMLADADNDGKITVNDAVMILKKAIKLID	-0.111
HMPYFLKQSNTRSKGLYLQIYHSFYVPGKGSRNKSYKAIGYVSELIKNGIEDPITYAKNLVDELNNNSSTP	-3.75
HMNEKFNVYPIPVYNNLNITGLSKPVTYLISSIDGKTIKNGVFQESIDVSDLKSGLYFLQVETKDPVKFIK	-0.658
HMKDSIQIPNVVGMTIKDAQSQYGKSFSIIEQNRTESTKPAGTILEQTPAGGDTVSKRDNIIIRVVVSLG	0.132
HMQNRIVNTTQGLAADKRGLLVADETGHTTRPGIFASGDVVNGARTVVEAVAHSKIVAESMHQYMQ	≥ 0.62
HMISKRFQIDEENAHKRIDIFLSHEFDSISRGIVQELIVKGEVLVNDKVTKRNYKLKTGDLVDITINL	-2.59
HMYEIEDIKEKLLDLLANSKTGFSGLEISNRLGINRITVSKYLNIFSAEGLIKQKNIGNVIIWFVEDGIE	-0.203
HMTYLIKFDENGRRSDTYVAEEKTQEQVTELLEKGFVLITEEDYQLLVGNVDGKEYIRNADGTYSEYT	-0.0279
HMEKVTPEMIAEYNALAKKYNSNPEVVFKKKEIQRLKYIYSLMSEKQKETAEVFPNIPPPPPT	-0.234
HMGGLAEIILNAIEIEGGFLPITDKSAPELIQSRLGMSKKAFKEAVGTLYKNRDIAIEPNGLRKI	0.0577
HMSRSLEIDVLVKALLEQDRRKFMLVTDGTADVTVRYNNALPSLFREGQGVVAEGLMDNGKFIATNVLAK	-0.631
HMYEDSNQSLNFFAIKFIKEKNIKISQETTNLIVERARGDRGNLINELQKLEALSLTRKKITQEDVFNLTN	-0.774
HMSGTYIATVEAGSLDIYKSMTSNETIGKASRGDVFQILEDMGSGYARVSYNDVEGYMSIKTGDASIEEL	-0.203

Sequence	soluble fraction (log2)
HMTNYREILRLRSLGLNHSRIAESMGISRPTVIAALQRAQTQELNWQAAESLSDIDLAQRLNP	-0.395
HMVFTEEERAEYREKMLDAGFDLLKQYGMTHMSVAKITEAAGIGVSTFYNFFSSKEEYVYEVLQYRRRK	-1.25
HMEEVIEVEGKITAVLPSTMFRAELENGHQVLAHISGKLRKHFIKITVGDIVKMEMSTQDLQKARIV	-0.307
HMDIAYFSNAELNDAFIQFLNMRQEAGKQLNGYQIQILTEKLERVADTDEDRISAVKNAIAGGWSNFYPPK	-0.272
HMLSAQEIPVEDIATRDFVLAEDVVSAKKVLLLPKGVDLSWFGSAKKRLVQRLKSEGVTHIRVFA	-0.0541
HMNTPAENFDKAVEKYKSTNSATEKDAAFKVIEDEWIKLSDEEKKERQDEYDSIFESEGDRV	0.126
HMNVDSIPGKSGIVTQGIDNLKAMGRVTVNGMEWTARSKDGSLIEEGKVVRVYGVEGVKLIVEED	-0.0306
HMPGLSQAEAQSLLIAYLAQQGRTLELIPLGQSGDVWRFSGRESDGTVVSFFMVSRTDGTISEVPVPP	-0.62
HMEEKWKENYEKIKLFISINNRYPSVYSEDKEEGLIGSFMSNQKRRKNKLSKEKMALFEALPNWIWE	-1.72
HMSTTILSFQNRVVIETLHNEGRSLRYIANYLGFSKATIFNELHRLNSEYRAELAQADFERKVSQR	-3.59
HMADQVVGQLGMVTQRIDNLQQTGRVSANGLDWAARSENGQPIPQGMPVEVLRIEGVKLIVRPVN	-0.0238
HMVNIPEIAKKFGKSTSEVFEQIQIGEKHEMEHTNDPKKARKIALDHLSDDMDYYKKLKKLG	0.27
HMEDVPYMIKLPSHHYLTKMVDGSTGWSLVQNSNTVVGSSKEELLKQYPEYEDFIVQEPLNV	0.101
HMTQTGEVIRWDAERGFGFIATADGRRHVFFHVRDFRGGAAPGVGLRVGFEEIQVGGKGPRAMDVRPL	-0.48
HMQKYEDIINVTRERLQNKFYSQTVIPTDDDIYIWLDKVAILEEIKLSKEDRQMLFNLLKKEAT	-0.451
HMSYTAYLSQELGDMSREIQSELLKKGYNGSSSFTIVRTYMGSSVKFSVYNANNGELITSKTINM	-1.93
HMLKLEPYTINEINSLQELYDLGNVRALETLISIYKDKNQVYDTRFYVLDILSKYDNPLIQEALEESITN	-1.78
HMQDVVERIKKYKQLFSITSEELSKRSGIPLGTLNKILSSSTKSIKTETLAAIAKGLDVSVSDLVGREK	0.0602
HMVTVPNYSDPRQYVEWGNANGITINRAVGDTIASMSGRVQDVRDSNGNSVIGKKVKKGSTVTVYIYFLK	-0.00985
HMLAHSEFGARLRETRKRLGLSQSELGGDRYSGSYISHLESGRRAASAEVIEFLAGRLGVEVEELGM	-0.171
HMNDILETISNQIRDLRVSKKITQQELAERTNLSVPYISQIENGHRNISLETFIKIVDALDIPLSDFFLP	-1.03
HMGYPYDTVTTAKVNLRAKRSTSSDILKKIPEGATVTVKGVTGTFASVDYNGTSGYVKVDYLV	0.069
HMVKPQANTIYKEYIKYRANLQNKNEFLSFSEYAKQKHNLEQMSEIMVDANLKEEMLETLKEMS	0.0362
